Source: paper PMC3302947 (Biochemistry, 2012)

B1: MBP-Vif(101–176)_(PPGP) (domain or fragment)
chain: not shown
B2: MBP-Vif(101–176)_(PPPP) (domain or fragment)
chain: not shown
B3: MBP-Vif(101–160) (domain or fragment)
chain: ELADQLIHLYYFDCFSDSAIRKALLGHIVSPRCEYQAGHNKVGSLQYLALAALITPKKIK
B4: MBP-Vif(101–176)_(AALA) (domain or fragment)
chain: ELADQLIHLYYFDCFSDSAIRKALLGHIVSPRCEYQAGHNKVGSLQYLALAALITPKKIKAALASVTKLTEDRWNK
B5: MBP-Vif(101–176) (domain or fragment)
chain: not shown
B6: MBP-Vif(101–192) (domain or fragment)
chain: ELADQLIHLYYFDCFSDSAIRKALLGHIVSPRCEYQAGHNKVGSLQYLALAALITPKKIKPPLPSVTKLTEDRWNKPQKTKGHRGSHTMNGH
B7: MBP-Vif(101–176) V166S (domain or fragment)
chain: not shown
B8: MBP-Vif(101–165) (domain or fragment)
chain: ELADQLIHLYYFDCFSDSAIRKALLGHIVSPRCEYQAGHNKVGSLQYLALAALITPKKIKPPLPS
B9: MBP-Vif(101–172) (domain or fragment)
chain: ELADQLIHLYYFDCFSDSAIRKALLGHIVSPRCEYQAGHNKVGSLQYLALAALITPKKIKPPLPSVTKLTED

Columns and labels:
Assay in all cases: AUC
[1] = biological target: the molecule itself
[2] = biological target: the molecule itself; remark: listed apart in the source
[3] = biological target: the molecule itself; remark: listed apart in the source

Protein	binding result [2]	percent monomer at 10 μM [3] [%]	other results
ITPKKIKPPLPSVTKLTEDRWNK (domain or fragment) [MBP-Vif(154–176)]			stoichiometry N [1]: 2
B1	binds		
B2	binds		
B3		< 30	
B4	binds		
B5		< 30	
B6		< 30	
B7	binds		
B8		< 30	
B9		< 30	
